Measured values from the supplement of paper PMC11246515.
± gives the standard deviation of the averaged measurements.

Test: total protein half-life in vivo (active degradation + dilution); higher = more stable protein
[1] = E. coli NCM3722 delta-clpP delta-lon delta-hslV, growth: N-lim chemostat, doubling time 6 h
[2] = E. coli NCM3722 delta-clpP, growth: N-lim chemostat, doubling time 6 h
[3] = E. coli NCM3722 delta-hslV, growth: N-lim chemostat, doubling time 6 h
[4] = E. coli NCM3722 delta-smpB, growth: N-lim chemostat, doubling time 6 h
[5] = wild type E. coli NCM3722, growth: C-lim chemostat, doubling time 3 h
[6] = wild type E. coli NCM3722, growth: C-lim chemostat, doubling time 6 h
[7] = wild type E. coli NCM3722, growth: C-lim chemostat, doubling time 12 h
[8] = wild type E. coli NCM3722, growth: N-lim chemostat, doubling time 6 h
[9] = wild type E. coli NCM3722, growth: N-lim chemostat, doubling time 12 h
[10] = wild type E. coli NCM3722, growth: P-lim chemostat, doubling time 6 h
[11] = wild type E. coli NCM3722, growth: P-lim chemostat, doubling time 12 h
[12] = E. coli NCM3722 delta-lon, growth: N-lim chemostat, doubling time 6 h

Sequence | total protein half-life in vivo [1] [h] | total protein half-life in vivo [2] [h] | total protein half-life in vivo [3] [h] | total protein half-life in vivo [4] [h] | total protein half-life in vivo [5] [h] | total protein half-life in vivo [6] [h] | total protein half-life in vivo [7] [h] | total protein half-life in vivo [8] [h] | total protein half-life in vivo [9] [h] | total protein half-life in vivo [10] [h] | total protein half-life in vivo [11] [h] | total protein half-life in vivo [12] [h]
MSKKIAVIGECMIELSEKGADVKRGFGGDTLNTSVYIARQVDPAALTVHYVTALGTDSFSQQMLDAWHGENVDTSLTQRMENRLPGLYYIETDSTGERTFYYWRNEAAAKFWLESEQSAAICEELANFDYLYLSGISLAILSPTSREKLLSLLRECRANGGKVIFDNNYRPRLWASKEETQQVYQQMLECTDIAFLTLDDEDALWGQQPVEDVIARTHNAGVKEVVVKRGADSCLVSIAGEGLVDVPAVKLPKEKVIDTTAAGDSFSAGYLAVRLTGGSAEDAAKRGHLTASTVIQYRGAIIPREAMPA | 4.86 ± 0.33 | 4.46 ± 0.27 | 4.84 ± 1.2 | 4.53 ± 0.19 | 2.44 ± 0.65 | 5.96 ± 0.1 | 11.1 ± 0.28 | 4.64 ± 0.11 | 8.67 ± 1.7 | 5.5 ± 0.33 | 10.6 ± 1.2 | 
MLNSFKLSLQYILPKLWLTRLAGWGASKRAGWLTKLVIDLFVKYYKVDMKEAQKPDTASYRTFNEFFVRPLRDEVRPIDTDPNVLVMPADGVISQLGKIEEDKILQAKGHNYSLEALLAGNYLMADLFRNGTFVTTYLSPRDYHRVHMPCNGILREMIYVPGDLFSVNHLTAQNVPNLFARNERVICLFDTEFGPMAQILVGATIVGSIETVWAGTITPPREGIIKRWTWPAGENDGSVALLKGQEMGRFKLGSTVINLFAPGKVNLVEQLESLSVTKIGQPLAVSTETFVTPDAEPAPLPAEEIEAEHDASPLVDDKKDQV [P0A8K1] | 6.31 ± 0.2 | 6.33 ± 0.086 | 5.99 ± 0.61 | 6 ± 0.58 | 2.76 ± 0.4 | 6.32 ± 0.66 | 12.8 ± 0.63 | 6.81 ± 0.24 |  | 6.16 ± 0.32 | 13.3 ± 0.12 | 5.79 ± 0.1
MERFLENAMYASRWLLAPVYFGLSLALVALALKFFQEIIHVLPNIFSMAESDLILVLLSLVDMTLVGGLLVMVMFSGYENFVSQLDISENKEKLNWLGKMDATSLKNKVAASIVAISSIHLLRVFMDAKNVPDNKLMWYVIIHLTFVLSAFVMGYLDRLTRHNH |  |  |  | 5.64 ± 0.26 | 2.92 ± 0.05 |  | 11.8 ± 1.8 | 4.99 ± 0.67 |  | 5.88 | 10.6 | 6.103 ± 0.048
MAYRDQPLGELALSIPRASALFRKYDMDYCCGGKQTLARAAARKELDVEVIEAELAKLAEQPIEKDWRSAPLAEIIDHIIVRYHDRHREQLPELILQATKVERVHADKPSVPKGLTKYLTMLHEELSSHMMKEEQILFPMIKQGMGSQAMGPISVMESEHDEAGELLEVIKHTTNNVTPPPEACTTWKAMYNGINELIDDLMDHISLENNVLFPRALAGE |  |  |  | 2.54 | 2.72 |  |  |  |  |  |  | > 8
MTAKTAPKVTLWEFFQQLGKTFMLPVALLSFCGIMLGIGSSLSSHDVITLIPVLGNPVLQAIFTWMSKIGSFAFSFLPVMFCIAIPLGLARENKGVAAFAGFIGYAVMNLAVNFWLTNKGILPTTDAAVLKANNIQSILGIQSIDTGILGAVIAGIIVWMLHERFHNIRLPDALAFFGGTRFVPIISSLVMGLVGLVIPLVWPIFAMGISGLGHMINSAGDFGPMLFGTGERLLLPFGLHHILVALIRFTDAGGTQEVCGQTVSGALTIFQAQLSCPTTHGFSESATRFLSQGKMPAFLGGLPGAALAMYHCARPENRHKIKGLLISGLIACVVGGTTEPLEFLFLFVAPVLYVIHALLTGLGFTVMSVLGVTIGNTDGNIIDFVVFGILHGLSTKWYMVPVVAAIWFVVYYVIFRFAITRFNLKTPGRDSEVASSIEKAVAGAPGKSGYNVPAILEALGGADNIVSLDNCITRLRLSVKDMSLVNVQALKDNRAIGVVQLNQHNLQVVIGPQVQSVKDEMAGLMHTVQA |  |  |  |  | 1.42 ± 0.085 |  | 2.5 ± 0.29 |  |  |  |  | 
MLSKFKRNKHQQHLAQLPKISQSVDDVDFFYAPADFRETLLEKIASAKQRICIVALYLEQDDGGKGILNALYEAKRQRPELDVRVLVDWHRAQRGRIGAAASNTNADWYCRMAQENPGVDVPVYGVPINTREALGVLHFKGFIIDDSVLYSGASLNDVYLHQHDKYRYDRYHLIRNRKMSDIMFEWVTQNIMNGRGVNRLDDVNRPKSPEIKNDIRLFRQELRDAAYHFQGDADNDQLSVTPLVGLGKSSLLNKTIFHLMPCAEQKLTICTPYFNLPAILVRNIIQLLREGKKVEIIVGDKTANDFYIPEDEPFKIIGALPYLYEINLRRFLSRLQYYVNTDQLVVRLWKDDDNTYHLKGMWVDDKWMLITGNNLNPRAWRLDLENAILIHDPQLELAPQREKELELIREHTTIVKHYRDLQSIADYPVKVRKLIRRLRRIRIDRLISRIL | 5.434 ± 0.046 | 5.74 ± 0.068 | 5.18 ± 0.38 | 4.896 ± 0.011 | 2.97 ± 0.26 | 5.64 ± 0.11 | 9.36 ± 0.81 | 5.01 ± 0.21 | 8.57 ± 0.86 | 6.41 ± 0.85 | 12 ± 1.5 | 5.91 ± 0.5
